Results reported in the DeepSol protein solubility set.

Test: soluble on expression in E. coli; label from the status in PepcDB or PDB records

Sequence | soluble on expression in E. coli
MGSDKIHHHHHHMSQDDHSRDSAGLTYVYPVVSRRAGGVSIGINLNPNNACNWRCIYCQVPDLKRGTAPVIDLVRLEQELRDFLHELVYGNFMQEKVPPETRVIKDIALSGNGEPTSAREFEQIIEIIGRVKADFPLPEELKLVLITNGSLINRMYVQKGLHLMAGLNGEVWFKLDSVTQTGRLRINNTRASLQRMRDNLQTAASLCPTWLQTCVFKLKGVHPDTHETDAYIGFIRTLLQEGTQIRGVLLYTLARPALQPEAPDLSKADPDWIKTFADKIRALGIPVRTAF | not soluble
MAKRILCFGDSLTWGWVPVEDGAPTERFAPDVRWTGVLAQQLGADFEVIEEGLSARTTNIDDPTDPRLNGASYLPSCLATHLPLDLVIIMLGTNDTKAYFRRTPLDIALGMSVLVTQVLTSAGGVGTTYPAPKVLVVSPPPLAPMPHPWFQLIFEGGEQKTTELARVYSALASFMKVPFFDAGSVISTDGVDGIHFTEANNRDLGVALAEQVRSLL | soluble
MPHTNGKGGGAQKWAGNNKRKRNFDGEQDPSVRKALKEKRLLKKRKQDLKGQEETMLDEVEQKYQEMLKKSSRTFLRFEDFPLSWRTLEGLKDNDYTKPTEIQRDTIAYSLTGSDVVGAAKTGSGKTLALVIPVLEALWRAKWSPDYGLGALIISPTRELALQTFSTINAVGAHHGFSCGLVIGGSDVAFERNRISGINIIVCTPGRLLQHMDENAQMSCDSLQVLVLDEADRMLDMGFSKQLNSIINNLPAERQTLLFSATQTRNVKDLCRVCTNDPVFVSVHENASAATPDNLKQSYVIVEEEHKINALWSFIEAHRKKKSLVFVSSCKQARFLTEAFSQLRPGLPVMGLWGTMNQKKRIETFTKFDESKAAVLIATDVASRGLDFEHIDWVIQVDCPAQIDDYIHRVGRSARMDDSGNSLLMVSPSQEEAMIGKLEKHSIPIEELKIHPDAMSDVRVKLRAILAESQELKEYAQKSIVAYLRSIYTMKDKKVFDVEAIDAAALADSFGLVSVPRVRFLNKKAKKSGEKLMEKEVKEEEEEASLVGKFAIDEDDEDIFTVKKPTGEPEQIKEEEAAEKISNITISKTKPLKKAVTKVSAAKKILNKKLKVNTKKTFGAEDDELEELEEGPSTITSYGLDIEKARQEIKSGDKEDRKRFKLLREQRRQEKLAKKNRRAEEEEAVEYDEDGSEDEPDISWLPDPDAVRRKYEEEPDEVEDLEQQALAALGRK | not soluble
MKVEEILEKALELVIPDEEEVRKGREAEEELRRRLDELGVEYVFVGSYARNTWLKGSLEIDVFLLFPEEFSKEELRERGLEIGKAVLDSYEIRYAEHPYVHGVVKGVEVDVVPCYKLKEPKNIKSAVDRTPFHHKWLEGRIKGKENEVRLLKGFLKANGIYGAEYKVRGFSGYLCELLIVFYGSFLETVKNARRWTRRTVIDVAKGEVRKGEEFFVVDPVDEKRNVAANLSLDNLARFVHLCREFMEAPSLGFFKPKHPLEIEPERLRKIVEERGTAVFAVKFRKPDIVDDNLYPQLERASRKIFEFLERENFMPLRSAFKASEEFCYLLFECQIKEISRVFRRMGPQFEDERNVKKFLSRNRAFRPFIENGRWWAFEMRKFTTPEEGVRSYASTHWHTLGKNVGESIREYFEIISGEKLFKEPVTAELCEMMGVKD | soluble
MGHHHHHHSHSKEITVRGHNCPKPVLNFYEANFPANVMDVIARQNFTEPTAIQAQGWPVALSGLDMVGVAQTGSGKTLSYLLPAIVHINHQPFLERGDGPICLVLAPTRELAQQVQQVAAEYCRACRLKSTCIYGGAPKGPQIRDLERGVEICIATPGRLIDFLECGKTNLRRTTYLVLDEADRMLDMGFEPQIRKIVDQIRPDRQTLMWSATWPKEVRQLAEDFLKDYIHINIGALELSANHNILQIVDVCHDVEKDEKLIRLMEEIMSEKENKTIVFVETKRRCDELTRKMRRDGWPAMGIHGDKSQQERDWVLNEFKHGKAPILIATDVASRGLDVEDVKFVINYDYPNSSEDYIHRIGRTARSTKTGTAYTFFTPNNIKQVSDLISVLR | not soluble
LTLKNPIMVVGLPGVGLVGKLVAEHLVDELAAERIMEVYSPHFPPQVLVNKDCTVRPVSNTIYLGKANETDVLFLVGDHQSTTAQGHYELCSLYLDIAEELKVPRIYTLGGYPTGKLTYEDTVLGVANSTELIEEIKQYGVEFRESEPSGGIVGASGLLVAFSGMRGIDAACLMGMTPGYLMDPKSAQSLLKVLCNIFGIEVNTDSLKKKAEEMENILEKLKEKEEQQNLPEVKPTEEDLRYIG | not soluble
MKPADIDKLISEIRTAIYAEQSHRKIIEIDPDIYRKVRAALSDLQAEASEYFQKQDIENYLTMNNRFQTLKRDFRSLFQRRFEKIVAKAIYDISGETLSLLTDEEKEFIEKIHNIITEEFESFIPKREEKNEARAEAQPAPADESPTAIADQKPQEEPQVVQDQHQPPAEIPSENIEIKKEDGRYVLVMITEDLPPIAQLDRNYSLHSNDLVYLPQDLASILAKRKVALVLDQ | soluble
GPGSMLRRLFTRMAPRAKNHEELMKMLREGSQVGKMAASEESGVTFRDIRTVPIGESNEAKRRRLLYQSTYRGMVEMDIILGAFARQNIETLSAPQLEEYDAVLRHFDNDLYKWLVMDVEAPAEVAQIPVFQSLHSFVRDEREKLLKCAS | soluble
MANHKPEIVITYCTQCQWLLRAAWLAQELLSTFADDLGRVALEPGTGGIFRITCNGVQIWERKADGGFPEAKVLKQRVRDQVDPQRDLGHNDRLEHHHHHH | soluble
MNKVLINDTTLRDGEQAAGVVFTLEEKVAIAKFLDTIGVPELEVGIPAMGEEEMRAICAISNLGLKANLLAWNRAVISDIKASVACGMERVHIAIPVSGIQIAAKFHGQWRVSLQRLKDCISFAVDQGLWVAVGGEDSSRADENFLLDVALYAQEWGASRFRFCDTVGVLDPFTTYGKVKLLVSALTIPVEVHTHNDFGMATANALAGIKAGASSVNTTVIGLGERAGNAALEEVVMAIKRIYGVDMGIDTPRLLELSQLVAAASGANVPPWKAIVGENTFAHESGIHAHGVLQNPDTYEPFAPEEVGWERRLVVGKHSGRHSVSNLLEQHGIFLNPEETQSVLDAVRQQSIKKKRSLTTEELLNLVKEQR | not soluble
MGSDKIHHHHHHMTRTIVIDPVTRIEGHAKISVFLDDQGNAEAARFHVVEYRGFEKFCEGRPFTEMAGITARICGICPVSHLLAAAKTGDKILAVQIPPAAENLRRLINLAQIIQSHALSFFHLSSPDFLLGWDSDPARRNLFGLIAADPETARAGIRLRQFGQQLIEWLGGRKIHAAWAVPGGVRSLLSQEGMVWIRDRLPAELATVRATLDRFKRLLDREFREETAVFGDFPSLFMGLVADNGDWEHYGGHLRFVDSQGRIIADRLREDDYASFLGEAVEPWSYLKFPYYKPWGYPEGMYRVGPLARLNVCDRIGTAGAEAERQELRDRAGGTVTSSFLYHYARLVEILASLEKIAEMVEDPNLQTGFLRSQAGVNCLEAIGVSEAPRGTLFHHYRVDSHGKIERVNLIIATGQNNLAMNRTVTQIAQHYIRHGEVQESFLNRVEAGIRCFDPCLSCSTHTAGQMPLKIEIFDSRGELYQCLCRDL | not soluble
MALPRITQKEMTEREQRELKTLLDRARIAHGRVLTNSETNSIKKDYIDKLMVEREAEAKKARQLKKKQAYKPDPEASFSWSANTSTRGRR | soluble
MGSDKIHHHHHHMGAVVVKDLRKRIGKKEILKGISFEIEEGEIFGLIGPNGAGKTTTLRIISTLIKPSSGIVTVFGKNVVEEPHEVRKLISYLPEEAGAYRNMQGIEYLRFVAGFYASSSSEIEEMVERATEIAGLGEKIKDRVSTYSKGMVRKLLIARALMVNPRLAILDEPTSGLDVLNAREVRKILKQASQEGLTILVSSHNMLEVEFLCDRIALIHNGTIVETGTVEELKERYKAQNIEEVFEEVVKCSENF | soluble
MSTAFAIPLFQFSPKPLHWKKRIAMWKAEIMDIKTTETGSRGEYSATIDGHKAQMTYSRTSPSLIIIDHTGVPDALRGKGVGQALAAHAIDEARKGGWKIIPLCPFFKAQTLRHADWADVIQGLEHHHHHH | soluble
DIELTQTPVSLSASVGETVTITCRASENIYSYLAWYQQKQGKSPQFLVYNAKTLGEGVPSRFSGSGSGTQFSLKINSLLPEDFGSYYCQHHYGTPPLTFGGGTKLEIKREQKLISEEDLM | soluble
MGSDKIHHHHHHMDQAQIEIQVLSSLSQIAASDWDACACPEAEAGGRPLDPFTTHRFLSALEDSGSVGQGTGWQPQYLTCYLDGQLVACAPLYAKGHSQGEYIFDHNWAHAYERAGGRYYPKLQVAVPFTPATGRRFLVRPGYEEIGISALLQGAVQLASDNQLSSLHVTFCTSDEAEAGREIGLMSRSSQQFHWLNDGYAGFEAFLAALSSRKRKNIRKERKQAQGFGGSIETYTGADLRSEHWDAFWRFYQDTGSRKWGTPYLTRAFFEIIHDTMAEDMALVLAERDGVPVAGALNFIGAKTLYGRYWGCMEHHPCLHFELCYYQAIDLAIEMGLDRVEAGAQGEHKLARGYLPTETHSLHWVADPGFRAAIEQYLEAERAAVGEEIEILTSYGPFKKTHVEEQE | not soluble
SSEQTLEYFLNKGTIRRKDAADIEWYHAANSKSKLMEALRGSAQMIEADVLLRGADPEEPIMAHPPAKDSDITLQDWLKEVVKTDKGIKLDFKSLAAVSQSMSLLEEIRDQLKGPVWINADILPGPGGTATPVDPHVFLQEVAQRSENDVLSLGWTTGWTANVDNPGYSWEMVHQMEELCRPLKQPVTFPVRASLLPMSFPQFQWLLEQSDRSEILH | soluble
MSLGDGNVEVAIIAYPYMSNFNEFYALVKSNARVSFVRKPKETAKADLVILPGSRNTLESLKWLVENGFVEQLRQRSMNILGICGGFQILGKKIVDPYGIEAGYPTEYEGLGIFDINVHYSKDKVVSMTTGISEYGEMNGYEIRRGVIKYMGEKPLLKITLRNGEKVSVEDGAKKDNIIGISVHGTLFSDGMKKLLKEFNINIHSQSMEEGHHHHHH | soluble
ESEPQPEPCPGRAGAAARARWCPQPRPLVLLSLGALEFVSLSQQAFQICPVFVVCGLYQDGNSNKSFLLRSWCLHPEGTVCASSPERKDLPEALGNDPGTPGQRGLKLFGKAAGLLGKMAMAPSPSLVQVYTSPAAVAVWEWQDGLGTWHPYSATVCSFIEQQFVQQKGQRFGLGSLAHSIPLGQADPSLAPYIIDLPSWTQFRQDTGTMRAVRRHLFPQHSAPGRGVVWEWLSDDGSWTAYEASVCDYLEQQVARGNQLVDLAPLGYNYTVNYTTHTQTNKTSSFCRSVRRQAGPPYPVTTIIAPPGHTGVACSCHQCLSGSRTGPVSGRYRHSMTNLPAYPVPQHPPHRTASVFGTHQAFAPYNKPSLSGARSAPRLNTTNAWGAAPPSLGSQPLYRSSLSHLGPQHLPPGSSTSGAVSASLPSGPSSSPGSVPATVPMQMPKPSRVQQALAGMTSVLMSAIGLPVCLSRAPQPTSPPASRLASKSHGSVKRLRKMSVKEATPKPEPEPEQVIKNYTEELKVPPDEVCVLGPWLPLFLFGNNSTWKGHPPHLA | soluble
MSLATWSAERFGFGAALGDHDRARRAAVGEAVERYCGNAVPDALEIACYDDLARAGRPALDPATLALYSDRQYRARGFPFRPFTRQTPVAWVPGRDLYAGGPVLVPASMAYLNYFRGAHADEVATHAMLYAGIATGENREHAERFALEELFERDANTIWWASGAAGWAVADAAELLDRYDIAHGEGTGRTIRLFQVPSQFPVPVLAAFLEEPGRGLIAYGTACRADPREAATKALVEAFAMLELTAELADGDSAHWRAVARGEIPPHTYLPYRADRRYADDIRPDFRDLVDLPAVAQLYLDPRMQGRPLDRLRDDTRTTRLADIPRADGDANGGTAHRRYLDMLATQGLSAVSVDVTTPDVRAAGLTVVRVIVPGLYGNPPAAFPFLGGERLYDVPAQLGLAAGKITEDALYPYPIPHEGHHHHHH | not soluble
